Measurements as given in article PMC5120205.

Target: recombinant full-length IsdB, Q2FHV2
Experiment: ELISA
Conditions: chain shown with the change

B1: D4-10-N1 antibody (human IgG) H:Y52A; H:F53A (protein)
chain 1: QVQLQESGPGLVKPSETLSLICTVSGGSISSSSYYWGWIRQTPERNLEWIGIIAASGTTYYNPSLQSRVSMSLDRSTNRFSLRLSSVTAADTAIYYCAKPKSRDRGGPGDDYFGMDVWGQGIMVTVSS
chain 2: DIQLTQSPSFLSASVADRVTITCRASQAVRSSLAWYQQKPGKAPQLLIYSASTLENGVSSRFSGSGPGTEFTLTISSLQPEDVGTYYCQQLNTYPFTFGPGTKVEIK
**Q.** For B1, which percent of parent is on record?
**A.** 9%
